Measured values published in patent US8563700B2, “Synergistic effects” (ImmunoGen, Inc., priority 2008, dated 2013).

Key:
Type in all cases: in vivo
[1] = tested on: H929 human multiple myeloma cells; test: huN901-DM1 and bortezomib in H929 multiple myeloma large tumor xenografts; conditions: for activity according to NCI standards: huN901-DM1 50 μg/kg, bortezomib 0.5 mg/kg, as single agents or combined
Procedure: (§1) Mice were inoculated with human multiple myeloma tumor cell lines and allowed to become established (average tumor size of about 100 mm^3) prior to treatment. Conjugate dosing is described based on DM1 concentration. Efficacy is reported as both the % of tumor growth for treated vs. control (% T/C) and log cell kill (LCK) determined from the tumor doubling time and the tumor growth delay due to the treatment.
The anti-tumor effect of a combination of huN901-DM1 and bortezomib was evaluated in an established subcutaneous xenograft model of multiple myeloma. SCID mice (54 animals) were inoculated with H929 human multiple myeloma cells (1×10^7 cells/animal) injected subcutaneously into the right shoulder of the mice. […] Two groups of mice were treated with the single agent huN901-DM1 at DM1 doses of 50 μg/kg and 100 μg/kg, respectively (day 34 post tumor cell inoculation) administered intravenously. Two groups of mice were treated with the single agent bortezomib at a 0.5 mg/kg low dose and 1 mg/kg high dose (days 35 and 38 post tumor cell inoculation) administered intravenously. Four combination groups were evaluated, with combinations of each dose of huN901-DM1 plus low- or high-dose bortezomib using the same schedules used for single agent treated groups. A control group of animals received PBS administered intravenously (day 34 post tumor cell inoculation). Tumor growth was monitored by measuring tumor size twice per week. Tumor size was calculated with the formula: length×width×height×½.

[2] = tested on: OPM2 human multiple myeloma cells; test: huN901-DM1 and bortezomib in established subcutaneous OPM2 multiple myeloma xenografts; conditions: SCID mice
Source text: as §1
The anti-tumor effect of a combination of huN901-DM1 and bortezomib (Velcade, Millennium Pharmaceuticals) was evaluated in an established subcutaneous xenograft model of multiple myeloma. SCID mice (36 animals) were inoculated with OPM2 human multiple myeloma cells (1×10^7 cells/animal) injected subcutaneously into the right shoulder of the mice. […] Two groups of mice were treated with the single agent huN901-DM1 at DM1 doses of 100 μg/kg and 200 μg/kg, respectively (day 12 post tumor cell inoculation) administered intravenously. A third group of mice was treated with the single agent bortezomib at a dose of 1 mg/kg (days 13 and 16 post tumor cell inoculation), administered intravenously. Two groups were treated with combinations of huN901-DM1 (100 μg/kg or 200 μg/kg) plus bortezomib using the same doses, schedules and administration routes used for single agent treated groups. A control group of animals received PBS administered intravenously (day 12 post tumor cell inoculation). Tumor growth was monitored by measuring tumor size twice per week. Tumor size was calculated with the formula: length×width×height×½.

[3] = tested on: OPM2 human multiple myeloma cells; test: huN901-DM1 and lenalidomide in established subcutaneous OPM2 multiple myeloma xenografts; conditions: combination same doses; for LCK / T/C: SCID mice, lenalidomide 100 mg/kg i.p. days 16-20, 23-27; for LCK: huN901-DM1 200 μg/kg i.v. day 16; for T/C: huN901-DM1 200 μg/kg i.v. single injection day 16
Procedure: as §1
The anti-tumor effect of a combination of huN901-DM1 and lenalidomide was evaluated in an established subcutaneous xenograft model of multiple myeloma. SCID mice (20 animals) were inoculated with OPM2 human multiple myeloma cells (1×10^7 cells/animal) injected subcutaneously into the right shoulder of the mice. When the tumors reached about 130 mm^3 in size (16 days after tumor cell inoculation), the mice were randomly divided into four groups (5 animals per group). One group of mice was treated with the single agent huN901-DM1 (200 μg/kg, day 16 post tumor cell inoculation) administered intravenously. […] A third group was treated with a combination of huN901-DM1 plus lenalidomide using the same doses, schedules and administration routes used for single agent treated groups. A control group of animals received PBS administered intravenously (day 16 post tumor cell inoculation). Tumor growth was monitored by measuring tumor size twice per week. Tumor size was calculated with the formula: length×width×height×½.

[4] = tested on: MOLP-8 human multiple myeloma cells; conditions: Balb/c nude mice; huN901-DM1 200 μg/kg DM1 i.v. single injection day 22; melphalan 12 mg/kg i.p. single injection day 23; combination same doses
Source text: as §1
(§2) Tumor growth was monitored by measuring tumor size twice per week. Tumor size was calculated with the formula: length×width×height×½.

[5] = tested on: MOLP-8 human multiple myeloma cells; test: huN901-DM1 and thalidomide in established subcutaneous MOLP-8 multiple myeloma xenografts; conditions: SCID mice; huN901-DM1 100 μg/kg, thalidomide 200 mg/kg, as single agents or combined
Source text: as §1, §2

[6] = tested on: MOLP-8 human multiple myeloma cells; test: Triple combination huN901-DM1, lenalidomide plus low-dose dexamethasone in MOLP-8 xenografts
Procedure: Lenalidomide (100 mg/kg, qd×5×2) was administered at days 1-5 and 8-12. […]
as §1
The anti-tumor effect of a triple-combination of huN901-DM1 and lenalidomide plus low-dose dexamethasone was evaluated in an established subcutaneous xenograft model of multiple myeloma. SCID mice were inoculated with MOLP-8 human multiple myeloma cells (1.5×10^7 cells/animal) injected subcutaneously into the right shoulder of the mice. […] Treatments were initiated on day 13 post inoculation, indicated as day 1 of treatment. […] A second group of mice was treated with the combination of lenalidomide/low-dose dexamethasone (lenalidomide at 100 mg/kg, administered as a suspension in 1% carboxymethylcellulose/PBS by intraperitoneal injection on days 1-5, 8-12; dexamethasone at 1.5 mg/kg, administered by subcutaneous injection on days 1 and 8). A third group was treated with the triple-combination of huN901-DM1 plus lenalidomide/dexamethasone using the same doses, schedules and administration routes used for individual treatment groups. A control group of animals received PBS administered intravenously (days 1 and 8). Tumor growth was monitored by measuring tumor size twice per week. Tumor size was calculated with the formula: length×width×height×½.

[7] = bortezomib single agent, high dose 1.0 mg/kg
[8] = huN901-DM1 200 μg/kg, lenalidomide 100 mg/kg

## CC(C)C[C@H](NC(=O)[C@H](Cc1ccccc1)NC(=O)c1cnccn1)B(O)O [bortezomib]
[1]; [7]
  T/C: 11%
  activity: active
  tumor-free mice at day 119: 1 of 6
[1]
  activity according to NCI standards: inactive
[2]; bortezomib single agent 1 mg/kg i.v. days 13 and 16
  tumor-free mice at day 91: no tumor-free mice

## Nc1cccc2c1CN(C1CCC(=O)NC1=O)C2=O (stereo not shown) [lenalidomide, reference compound]
[3]
  LCK: 0.9
  T/C: 28%

## N[C@@H](Cc1ccc(N(CCCl)CCCl)cc1)C(=O)O [melphalan, reference compound]
[4]
  tumor growth delay: 14 days

## O=C1CCC(N2C(=O)c3ccccc3C2=O)C(=O)N1 (stereo not shown) [thalidomide, reference compound]
[5]
  activity according to NCI standards: inactive

B1: huN901-DM1: humanized antibody N901-maytansinoid conjugate (huN901-DM1); N901 binds to CD56 (conjugate, chains of the INN, looked up)
VH: QVQLVESGGGVVQPGRSLRLSCAASGFTFSSFGMHWVRQAPGKGLEWVAYISSGSFTIYYADSVKGRFTISRDNSKNTLYLQMNSLRAEDTAVYYCARMRKGYAMDYWGQGTLVTVSS
VL: DVVMTQSPLSLPVTLGQPASISCRSSQIIIHSDGNTYLEWFQQRPGQSPRRLIYKVSNRFSGVPDRFSGSGSGTDFTLKISRVEAEDVGVYYCFQGSHVPHTFGQGTKVEIK
modifications: DM1 maytansinoid conjugate
[1]
  activity according to NCI standards: inactive
[3]
  LCK: 0.9
  T/C: 26%
[3]; [8]
  activity: active
  tumor-free mice at the end of the study: no tumor-free survivors
[2]; huN901-DM1 100 μg/kg i.v. day 12, alone or plus bortezomib 1 mg/kg i.v. days 13 and 16
  tumor-free mice at day 91: 1 of 6
[2]; huN901-DM1 200 μg/kg i.v. day 12, alone or plus bortezomib 1 mg/kg i.v. days 13 and 16
  tumor-free mice at day 91: 3 of 6
[4]
  tumor growth delay: 11 days
[6]; MOLP-8 tumors, doses as in Example 7
  activity: active
[6]; SCID mice, huN901-DM1 150 ng/kg, qw×2 i.v., lenalidomide 100 mg/kg i.p. days 1-5, 8-12, dexamethasone 1.5 mg/kg s.c. days 1 and 8
  T/C: 33%
[6]; SCID mice, huN901-DM1 150 μg/kg, qw×2 i.v., lenalidomide 100 mg/kg i.p. days 1-5, 8-12, dexamethasone 1.5 mg/kg s.c. days 1 and 8
  LCK: 0.5
[6]; huN901-DM1 alone or lenalidomide/dexamethasone groups
  regressions: no regressions
[5]
  activity according to NCI standards: inactive
